Here are results for 94 variants from the supplement of paper PMC10567573.

The chains are these.
B1: KRT34 (parent)
chain: YQSYFKTIEELQQKILCAKAENAR
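Note: lentivirally expressed fusions sorted by FACS into six bins by GFP to DsRed ratio, PSI derived from sequencing read proportions per bin multiplied by bin number.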

Variants of B1 are the subject of this series. Kind of series: protein stability index of a GFP-peptide fusion (GPS, HEK-293T) (PSI 1-6); higher = more stable. Conditions: c terminus: a fixed tail appended.
Regarding YQSYFKTIEGLQQKILCAKAENAR, the protein stability index turned out to be 1.7.
The value for YQSYFKTIEWLQQKILCAKAENAR was 1.72.
Regarding YQSYFKTIENLQQKILCAKAENAR, the protein stability index turned out to be 2.19.
Next, YQSYFKTIEDLQQKILCAKAENAR: 1.61.
The value for YQSYFKTIEMLQQKILCAKAENAR was 2.
Next, YQSYFKTIERLQQKILCAKAENAR: 2.49; YQSYFKTIEFLQQKILCAKAENAR: 2.41.
As for YQSYFKTIEELQQKIYCAKAENAR, the protein stability index turned out to be 2.28.
Next, YQSYFKTIEELQQKIWCAKAENAR: 1.29; YQSYFKTIEELQQKIECAKAENAR: 2.63.
The value for YQSYFKTIEELQQKIGCAKAENAR was 2.02; that for YQSYFKTIEELQQKIPCAKAENAR was 1.41.
The value for YQSYFKTDEELQQKILCAKAENAR was 2.59; that for YQSYFKTVEELQQKILCAKAENAR was 2.85.
As to YQSYFKTMEELQQKILCAKAENAR, the protein stability index was determined as 2.26.
Next, YQSYFKTCEELQQKILCAKAENAR: 1.57; YQSYFKTTEELQQKILCAKAENAR: 1.35; YQSYFKTQEELQQKILCAKAENAR: 1.37.
As for YQSYFKTAEELQQKILCAKAENAR, the protein stability index is 2.26.
Take YQRYFKTIEELQQKILCAKAENAR: the protein stability index was found to be 1.79.
The value for YQMYFKTIEELQQKILCAKAENAR was 1.77.
YQIYFKTIEELQQKILCAKAENAR: the protein stability index was 1.61.
Next, YQHYFKTIEELQQKILCAKAENAR: 1.5; YQAYFKTIEELQQKILCAKAENAR: 2.69.
With YQKYFKTIEELQQKILCAKAENAR, the protein stability index came to 1.96.
The value for YQQYFKTIEELQQKILCAKAENAR was 2.3; that for YQWYFKTIEELQQKILCAKAENAR was 1.54; that for YQDYFKTIEELQQKILCAKAENAR was 1.98.
Next, YQPYFKTIEELQQKILCAKAENAR: 1.97; YQSYHKTIEELQQKILCAKAENAR: 2.34.
Next, YQSYYKTIEELQQKILCAKAENAR: 1.62; YQSYCKTIEELQQKILCAKAENAR: 2.24; YQSYKKTIEELQQKILCAKAENAR: 2.84.
Regarding YQSYQKTIEELQQKILCAKAENAR, the protein stability index was 2.53.
The value for YQSYTKTIEELQQKILCAKAENAR was 2.12; that for YQSYIKTIEELQQKILCAKAENAR was 1.94; that for YQSYAKTIEELQQKILCAKAENAR was 2.01.
For YQSYWKTIEELQQKILCAKAENAR, the protein stability index was 1.32.
The value for YQSYFKKIEELQQKILCAKAENAR was 1.58; that for YQSYFKLIEELQQKILCAKAENAR was 1.64.
The value for YQSYFKQIEELQQKILCAKAENAR was 2.07; that for YQSYFKIIEELQQKILCAKAENAR was 1.84.
Next, YQSYFKMIEELQQKILCAKAENAR: 1.67.
For the variant YQSYFKHIEELQQKILCAKAENAR, the protein stability index is 2.35.
The value for YQSYFKAIEELQQKILCAKAENAR was 2.2; that for YQSYFKCIEELQQKILCAKAENAR was 1.64.
The value for YQSYFKSIEELQQKILCAKAENAR was 3.16.
Next, YQSYFKTIEELQQKILCAQAENAR: 2.62; YQSYFKTIEELQQKILCASAENAR: 1.9; YQSYFKTIEELQQKILCALAENAR: 2.93.
For YQSYFKTIEELQQKILCAFAENAR, the protein stability index came to 1.74.
As for YQSYFKTIEELQQKILCAMAENAR, the protein stability index worked out at 2.51.
Next, YQSYFKTIEELQQKILCACAENAR: 1.78; YQSYFKTIEELQQKILCAHAENAR: 1.64.
The value for YQSYFKTIEELQQKILCAIAENAR was 2.39; that for YQSYFKTIEELQQKILCADAENAR was 2.48; that for YQSYFKTIEELQQKILCAAAENAR was 1.87.
The value for YQSYFKTIEELQQIILCAKAENAR was 1.52.
As for YQSYFKTIEELQQGILCAKAENAR, the protein stability index stood at 1.69.
For the variant YQSYFKTIEELQQMILCAKAENAR, the protein stability index came out at 1.46.
The value for YQSYFKTIEELQQVILCAKAENAR was 1.98; that for YQSYFKTIEELQQSILCAKAENAR was 2.27.
For YQSYFKTIEELQQNILCAKAENAR, the protein stability index worked out at 1.53.
Next, YQSYFKTIEELQQPILCAKAENAR: 1.97; YQSYFKTIEELQQCILCAKAENAR: 1.2.
The value for YQSYFKTIEELQQYILCAKAENAR was 1.46; that for YQSYFKTIEELQQHILCAKAENAR was 1.99; that for YQSNFKTIEELQQKILCAKAENAR was 2.21.
Next, YQSDFKTIEELQQKILCAKAENAR: 2.24; YQSGFKTIEELQQKILCAKAENAR: 3.06; YQSAFKTIEELQQKILCAKAENAR: 2.2.
In the case of YQSKFKTIEELQQKILCAKAENAR, the protein stability index is 1.52.
With YQSSFKTIEELQQKILCAKAENAR, the protein stability index is 2.
Next, YQSQFKTIEELQQKILCAKAENAR: 2.65.
Turning to YQSCFKTIEELQQKILCAKAENAR, the protein stability index was determined as 1.73.
The value for YQSYFKTIEELQQKILCAKAENAM was 1.02.
Next, YQSYFKTIEELQQKILCAKAENAD: 1.16; YQSYFKTIEELQQKILCAKAENAN: 2.25.
As to YQSYFKTIEELQQKILCAKAENAT, the protein stability index was 1.64.
The value for YQSYFKTIEELQQKILCAKAENAC was 1.59; that for YQSYFKTIEELQQKILCAKAENAA was 1.52; that for YQSYFKTIEELQYKILCAKAENAR was 1.54.
Consider YQSYFKTIEELQVKILCAKAENAR, for which the protein stability index turned out to be 1.96.
Next, YQSYFKTIEELQAKILCAKAENAR: 2.02; YQSYFKTIEELQPKILCAKAENAR: 1.78; YQSYFKTIEELQMKILCAKAENAR: 1.82.
The value for YQSYFKTIEELQTKILCAKAENAR was 1.74; that for YQSYFKTIEELQQKILCLKAENAR was 2.04; that for YQSYFKTIEELQQKILCGKAENAR was 1.78.
The value for YQSYFKTIEELQQKILCRKAENAR was 1.68; that for YQSYFKTIEELQQKILCPKAENAR was 2.21; that for YQSYFKTIEELQQKILCEKAENAR was 1.45.
With YQSYFKTIEELQQKILCIKAENAR, the protein stability index is 2.04.
As for YQSYFKTIEELQQKILCKKAENAR, the protein stability index amounted to 1.99.
